Laboratory results as given in patent US20230002480A1.

How the values were obtained:
Assay in all cases: cell-based or functional assay
[1] = target: HIV-1 Env of pseudovirus Ce1086_B2 (HIV-1)
[2] = target: HIV-1 Env of pseudovirus ZM249M.PL1 (HIV-1)
[3] = target: HIV-1 Env of pseudovirus PVO.4 (HIV-1)
[4] = target: HIV-1 Env of pseudovirus Ce2010_F5 (HIV-1)
[5] = target: HIV-1 Env of pseudovirus 6535.3 (HIV-1)
[6] = target: HIV-1 Env of pseudovirus Q461.e2 (HIV-1)
[7] = target: HIV-1 Env of pseudovirus 3301.v1.c24 (HIV-1)
[8] = target: HIV-1 Env of pseudovirus BJOX028000.10.3 (HIV-1)
[9] = target: HIV-1 Env of pseudovirus CNE8 (HIV-1)
[10] = target: HIV-1 Env of pseudovirus WEAU_d15_410_787 (HIV-1)
[11] = target: HIV-1 Env of pseudovirus Ce0682_E4 (HIV-1)
[12] = target: HIV-1 Env of pseudovirus 928-28 (HIV-1)
[13] = target: HIV-1 Env of pseudovirus Ce2060_G9 (HIV-1)
[14] = target: HIV-1 Env of pseudovirus HIV-16845-2.22 (HIV-1)
[15] = target: HIV-1 Env of pseudovirus 211-9 (HIV-1)
[16] = target: HIV-1 Env of pseudovirus 1054_07_TC4_1499 (HIV-1)
[17] = target: HIV-1 Env of pseudovirus ZM109F.PB4 (HIV-1)
[18] = target: HIV-1 Env of pseudovirus ZM247v1(Rev-) (HIV-1)
[19] = target: HIV-1 Env of pseudovirus 6041.v3.c23 (HIV-1)
[20] = target: HIV-1 Env of pseudovirus QH0692.42 (HIV-1)
[21] = target: HIV-1 Env of pseudovirus 231966.c02 (HIV-1)
[22] = target: HIV-1 Env of pseudovirus Q769.d22 (HIV-1)
[23] = target: HIV-1 Env of pseudovirus CNE19 (HIV-1)
[24] = target: HIV-1 Env of pseudovirus CNE5 (HIV-1)
[25] = target: HIV-1 Env of pseudovirus CNE58 (HIV-1)
[26] = target: HIV-1 Env of pseudovirus MS208.A1 (HIV-1)
[27] = target: HIV-1 Env of pseudovirus CNE17 (HIV-1)
[28] = target: HIV-1 Env of pseudovirus Ce1172_H1 (HIV-1)
[29] = target: HIV-1 Env of pseudovirus P1981_C5_3 (HIV-1)
[30] = target: HIV-1 Env of pseudovirus Q842.d12 (HIV-1)
[31] = target: HIV-1 Env of pseudovirus Du156.12 (HIV-1)
[32] = target: HIV-1 Env of pseudovirus 620345.c01 (HIV-1)
[33] = target: HIV-1 Env of pseudovirus X2088_c9 (HIV-1)
[34] = target: HIV-1 Env of pseudovirus Q259.d2.17 (HIV-1)
[35] = target: HIV-1 Env of pseudovirus 263-8 (HIV-1)
[36] = target: HIV-1 Env of pseudovirus A07412M1.vrc12 (HIV-1)

PGT121 (antibody)
IC50 [1]: < 0.001 µg/mL
IC80 [1]: < 0.001 µg/mL
IC50 [2]: > 50 µg/mL
IC80 [2]: > 50 µg/mL
IC50 [3]: 0.098 µg/mL
IC80 [3]: 0.343 µg/mL
IC50 [4]: > 50 µg/mL
IC80 [4]: > 50 µg/mL
IC50 [5]: 0.002 µg/mL
IC80 [5]: 0.008 µg/mL
IC50 [6]: > 50 µg/mL
IC80 [6]: > 50 µg/mL
IC50 [7]: 0.008 µg/mL
IC80 [7]: 0.019 µg/mL
IC50 [8]: > 50 µg/mL
IC80 [8]: > 50 µg/mL
IC50 [9]: > 50 µg/mL
IC80 [9]: > 50 µg/mL
IC50 [10]: 0.026 µg/mL
IC80 [10]: 0.077 µg/mL
IC50 [11]: > 50 µg/mL
IC80 [11]: > 50 µg/mL
IC50 [12]: 44.2 µg/mL
IC80 [12]: > 50 µg/mL
IC50 [13]: > 50 µg/mL
IC80 [13]: > 50 µg/mL
IC50 [14]: 3.97 µg/mL
IC80 [14]: 44.6 µg/mL
IC50 [15]: 0.852 µg/mL
IC80 [15]: 4.2 µg/mL
IC50 [16]: 0.064 µg/mL
IC80 [16]: 0.304 µg/mL
IC50 [17]: 8.64 µg/mL
IC80 [17]: > 50 µg/mL
IC50 [18]: 0.028 µg/mL
IC80 [18]: 0.082 µg/mL
IC50 [19]: > 50 µg/mL
IC80 [19]: > 50 µg/mL
IC50 [20]: 0.302 µg/mL
IC80 [20]: 2.31 µg/mL
IC50 [21]: > 50 µg/mL
IC80 [21]: > 50 µg/mL
IC50 [22]: > 50 µg/mL
IC80 [22]: > 50 µg/mL
IC50 [23]: 0.008 µg/mL
IC80 [23]: 0.105 µg/mL
IC50 [24]: > 50 µg/mL
IC80 [24]: > 50 µg/mL
IC50 [25]: > 50 µg/mL
IC80 [25]: > 50 µg/mL
IC50 [26]: > 50 µg/mL
IC80 [26]: > 50 µg/mL
IC50 [27]: 7.6 µg/mL
IC80 [27]: > 50 µg/mL
IC80 [28]: 0.036 µg/mL
IC50 [29]: < 0.001 µg/mL
IC80 [29]: < 0.001 µg/mL
IC50 [30]: 0.005 µg/mL
IC50 [31]: 0.004 µg/mL
IC80 [31]: 0.017 µg/mL
IC50 [32]: > 50 µg/mL
IC80 [32]: > 50 µg/mL
IC50 [33]: 0.003 µg/mL
IC80 [33]: 0.013 µg/mL
IC50 [34]: 15.4 µg/mL
IC80 [34]: > 50 µg/mL
IC50 [35]: 0.648 µg/mL
IC80 [35]: 3.96 µg/mL
IC50 [36]: 0.009 µg/mL
IC80 [36]: 0.075 µg/mL

PGT128 (antibody)
IC50 [1]: > 50 µg/mL
IC80 [1]: > 50 µg/mL
IC50 [2]: 39.7 µg/mL
IC80 [2]: > 50 µg/mL
IC50 [3]: 0.011 µg/mL
IC80 [3]: 0.028 µg/mL
IC50 [4]: > 50 µg/mL
IC80 [4]: > 50 µg/mL
IC50 [5]: 0.004 µg/mL
IC80 [5]: 0.016 µg/mL
IC50 [6]: > 50 µg/mL
IC80 [6]: > 50 µg/mL
IC50, titer in TZM.bl cells [7]: 0.067 µg/mL
IC80, titer in TZM.bl cells [7]: 0.499 µg/mL
IC50, titer in TZM.bl cells [8]: 0.024 µg/mL
IC80, titer in TZM.bl cells [8]: 0.07 µg/mL
IC50, titer in TZM.bl cells [9]: 0.019 µg/mL
IC80, titer in TZM.bl cells [9]: 0.052 µg/mL
IC50 [10]: 0.032 µg/mL
IC80 [10]: 0.153 µg/mL
IC50 [11]: > 50 µg/mL
IC80 [11]: > 50 µg/mL
IC50 [12]: > 50 µg/mL
IC80 [12]: > 50 µg/mL
IC50 [13]: > 50 µg/mL
IC80 [13]: > 50 µg/mL
IC50 [14]: 0.181 µg/mL
IC80 [14]: 0.834 µg/mL
IC50, titer in TZM.bl cells [15]: 0.062 µg/mL
IC80, titer in TZM.bl cells [15]: 0.215 µg/mL
IC50 [16]: 0.035 µg/mL
IC80 [16]: 0.312 µg/mL
IC50 [17]: > 50 µg/mL
IC80 [17]: > 50 µg/mL
IC50 [18]: 0.021 µg/mL
IC80 [18]: 0.081 µg/mL
IC50, titer in TZM.bl cells [19]: > 50 µg/mL
IC80, titer in TZM.bl cells [19]: > 50 µg/mL
IC50 [20]: 0.029 µg/mL
IC80 [20]: 0.081 µg/mL
IC50, titer in TZM.bl cells [21]: 3.2 µg/mL
IC80, titer in TZM.bl cells [21]: > 50 µg/mL
IC50 [22]: > 50 µg/mL
IC80 [22]: > 50 µg/mL
IC50 [23]: > 50 µg/mL
IC80 [23]: > 50 µg/mL
IC50, titer in TZM.bl cells [24]: 0.018 µg/mL
IC80, titer in TZM.bl cells [24]: 0.253 µg/mL
IC50 [25]: 13.8 µg/mL
IC80 [25]: > 50 µg/mL
IC50 [26]: > 50 µg/mL
IC80 [26]: > 50 µg/mL
IC50 [27]: 0.432 µg/mL
IC80 [27]: 1.99 µg/mL
IC50 [28]: 0.013 µg/mL
IC80 [28]: 0.038 µg/mL
IC50, titer in TZM.bl cells [29]: 0.019 µg/mL
IC80, titer in TZM.bl cells [29]: 0.088 µg/mL
IC50 [30]: 0.008 µg/mL
IC80 [30]: 0.102 µg/mL
IC50 [31]: 0.017 µg/mL
IC80 [31]: 0.046 µg/mL
IC50, titer in TZM.bl cells [32]: > 50 µg/mL
IC80, titer in TZM.bl cells [32]: > 50 µg/mL
IC50, titer in TZM.bl cells [33]: > 50 µg/mL
IC80, titer in TZM.bl cells [33]: > 50 µg/mL
IC50 [34]: > 50 µg/mL
IC80 [34]: > 50 µg/mL
IC50 [35]: 0.342 µg/mL
IC80 [35]: 3.3 µg/mL
IC50, titer in TZM.bl cells [36]: > 50 µg/mL
IC80, titer in TZM.bl cells [36]: > 50 µg/mL
